Where a chain is given by its changes, count along the chain named. Several values for one entry are separate records, joined by “and”; a condition that tells them apart may be missing. Equal values may be shown once.
Tests used:
[1] = target: T1, human CD32b (human, UniProt P31994 46-217, limits assumed); experiment: SPR, steady state
T1 construct: also called FcγRIIb
T1 sequence (looked up): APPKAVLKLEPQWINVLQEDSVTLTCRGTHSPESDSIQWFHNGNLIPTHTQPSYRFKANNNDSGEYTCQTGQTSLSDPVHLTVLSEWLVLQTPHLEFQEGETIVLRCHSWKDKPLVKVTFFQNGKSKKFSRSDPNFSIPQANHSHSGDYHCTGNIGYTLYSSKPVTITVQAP

[2] = target: T2, human CD32a H131 (human, UniProt P12318 36-218, limits assumed); experiment: SPR, steady state
T2 sequence (looked up): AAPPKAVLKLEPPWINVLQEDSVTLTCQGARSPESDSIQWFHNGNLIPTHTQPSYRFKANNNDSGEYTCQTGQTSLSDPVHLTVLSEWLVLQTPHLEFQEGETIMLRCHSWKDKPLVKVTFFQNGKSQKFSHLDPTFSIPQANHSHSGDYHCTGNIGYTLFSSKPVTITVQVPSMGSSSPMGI

[3] = target: T3, human BAFF-R expressed on cells (human, UniProt Q96RJ3 1-184); experiment: cell-based or functional assay
[4] = target: T3, human BAFF-R expressed on cells; experiment: flow cytometry, Raji cells
[5] = target: T4, cynomolgus CD16 (cynomolgus, UniProt Q8SPW2 17-208, limits assumed); experiment: SPR, summary table
T4 construct: also called Cyno CD16; cynomolgus FcγRIII
T4 sequence (Q8SPW2 17-208 limits assumed): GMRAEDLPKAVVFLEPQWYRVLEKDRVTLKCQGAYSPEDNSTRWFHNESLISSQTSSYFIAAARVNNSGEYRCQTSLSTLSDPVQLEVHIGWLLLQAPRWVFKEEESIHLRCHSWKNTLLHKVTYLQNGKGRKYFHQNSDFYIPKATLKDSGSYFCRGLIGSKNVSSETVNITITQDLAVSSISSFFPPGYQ

[6] = target: T2, human CD32a H131; experiment: SPR, summary table
[7] = target: T5, human CD32a R131 (human, UniProt P12318 36-218, limits assumed); experiment: SPR, summary table
T5 construct: also called FcγRIIa R131
T5 sequence (looked up): T2 sequence (looked up) with H132R

[8] = target: T6, human CD16a V158 (human, UniProt P08637 17-208); experiment: SPR, summary table
T6 construct: also called hCD16aV; hCD16a V158
T6 sequence (P08637 17-208 F176V limits assumed): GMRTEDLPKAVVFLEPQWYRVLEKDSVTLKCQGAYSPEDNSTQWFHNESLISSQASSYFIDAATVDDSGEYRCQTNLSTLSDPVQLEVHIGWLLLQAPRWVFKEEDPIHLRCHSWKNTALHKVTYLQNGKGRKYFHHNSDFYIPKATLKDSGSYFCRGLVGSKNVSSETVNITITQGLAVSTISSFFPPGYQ

[9] = target: T1, human CD32b; experiment: SPR, summary table
[10] = target: human CD16a F158 (human, UniProt P08637 17-208); experiment: SPR, summary table
human CD16a F158, sequence (P08637 17-208 limits assumed): as the sequence (P08637 17-208 F176V limits assumed) above, with V160F counted along it

[11] = target: T7, human CD16b (human, UniProt O75015 17-200, limits assumed); experiment: SPR, summary table
T7 construct: also called FcγRIIIb
T7 sequence (O75015 17-200 limits assumed): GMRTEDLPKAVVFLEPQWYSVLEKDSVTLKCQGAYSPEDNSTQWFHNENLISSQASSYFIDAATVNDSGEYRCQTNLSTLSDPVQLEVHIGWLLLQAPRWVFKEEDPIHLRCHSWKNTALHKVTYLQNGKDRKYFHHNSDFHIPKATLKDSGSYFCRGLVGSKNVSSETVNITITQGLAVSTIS

[12] = target: T8, human CD64 (human, UniProt P12314 16-288, limits assumed); experiment: SPR, summary table
T8 construct: also called FcγRI
T8 sequence (P12314 16-288 limits assumed): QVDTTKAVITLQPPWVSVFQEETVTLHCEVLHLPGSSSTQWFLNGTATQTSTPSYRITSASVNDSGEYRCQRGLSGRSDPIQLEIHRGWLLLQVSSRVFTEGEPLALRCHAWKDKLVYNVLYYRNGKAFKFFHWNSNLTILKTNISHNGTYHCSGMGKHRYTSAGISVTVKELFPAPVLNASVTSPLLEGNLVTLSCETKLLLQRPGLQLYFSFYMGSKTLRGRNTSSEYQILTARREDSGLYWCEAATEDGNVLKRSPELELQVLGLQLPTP

[13] = target: T9, human NKG2D (recombinant mFc-tagged dimer) (human, UniProt P26718 78-216); experiment: SPR, kinetic fit, control
T9 construct: also called hNKG2D
T9 sequence (looked up): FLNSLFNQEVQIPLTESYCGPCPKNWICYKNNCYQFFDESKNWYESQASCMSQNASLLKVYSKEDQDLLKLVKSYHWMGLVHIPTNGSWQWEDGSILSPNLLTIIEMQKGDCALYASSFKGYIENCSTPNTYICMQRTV

[14] = target: T6, human CD16a V158; experiment: SPR, kinetic fit, average
[15] = target: T10, cynomolgus NKG2D (recombinant mFc-tagged dimer) (cynomolgus, UniProt P61252 78-216); experiment: SPR, average
T10 construct: also called cyno NKG2D
T10 sequence (looked up): T9 sequence (looked up) with D38N, T128I
Description: Two different fits were utilized to obtain the equilibrium affinity data: steady state affinity fit and kinetic fit.

[16] = target: T10, cynomolgus NKG2D (recombinant …); experiment: SPR, 1:1 kinetic fit, average
Description: NKG2D is a native dimer, therefore recombinant mFc-tagged NKG2D dimer was used for this experiment. Two different fits were utilized to obtain the equilibrium affinity data: steady state affinity fit and kinetic fit.

[17] = target: T2, human CD32a H131; experiment: SPR, steady state, average
[18] = target: T3, human BAFF-R expressed on cells; experiment: flow cytometry, human BAFF-R CHO cells
Description: Isogenic cell lines overexpressing human and cynomolgus BAFF-R on the backbone of CHO cell line were designed.

[19] = target: T3, human BAFF-R expressed on cells; experiment: flow cytometry on hBAFFR-CHO cells, anti-human Fc-g-PE, fold over background
[20] = target: T3, human BAFF-R expressed on cells; experiment: flow cytometry, human BAFF-R CHO cells; remark: listed apart in the source
[21] = target: T4, cynomolgus CD16; experiment: SPR, kinetic fit, average
[22] = target: T11, cynomolgus FcRn (cynomolgus, UniProt Q8SPV9 24-297; Q8SPW0 21-119); experiment: SPR, pH 6.0, summary table
T11 construct: also called Cyno FcRn
T11 sequence (Q8SPV9 24-297 limits assumed, chain 1 of 2): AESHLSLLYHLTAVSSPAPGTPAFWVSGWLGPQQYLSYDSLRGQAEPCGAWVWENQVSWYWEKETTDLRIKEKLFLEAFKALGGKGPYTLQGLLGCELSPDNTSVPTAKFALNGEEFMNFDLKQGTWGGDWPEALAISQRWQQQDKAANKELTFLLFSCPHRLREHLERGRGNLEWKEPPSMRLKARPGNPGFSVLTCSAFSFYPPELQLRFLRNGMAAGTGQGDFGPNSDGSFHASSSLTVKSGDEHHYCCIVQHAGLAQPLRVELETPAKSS
T11 sequence (Q8SPW0 21-119 limits assumed, chain 2 of 2): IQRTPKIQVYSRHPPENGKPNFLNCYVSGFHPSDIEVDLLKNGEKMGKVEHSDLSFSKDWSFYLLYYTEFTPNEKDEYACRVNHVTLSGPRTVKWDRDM

[23] = target: T9, human NKG2D (recombinant mFc-tagged …); experiment: SPR, high concentration sample, control

B1: AB1424/AB1612 F3′ TriNKET (bispecific antibody, human IgG1, kappa)
chain: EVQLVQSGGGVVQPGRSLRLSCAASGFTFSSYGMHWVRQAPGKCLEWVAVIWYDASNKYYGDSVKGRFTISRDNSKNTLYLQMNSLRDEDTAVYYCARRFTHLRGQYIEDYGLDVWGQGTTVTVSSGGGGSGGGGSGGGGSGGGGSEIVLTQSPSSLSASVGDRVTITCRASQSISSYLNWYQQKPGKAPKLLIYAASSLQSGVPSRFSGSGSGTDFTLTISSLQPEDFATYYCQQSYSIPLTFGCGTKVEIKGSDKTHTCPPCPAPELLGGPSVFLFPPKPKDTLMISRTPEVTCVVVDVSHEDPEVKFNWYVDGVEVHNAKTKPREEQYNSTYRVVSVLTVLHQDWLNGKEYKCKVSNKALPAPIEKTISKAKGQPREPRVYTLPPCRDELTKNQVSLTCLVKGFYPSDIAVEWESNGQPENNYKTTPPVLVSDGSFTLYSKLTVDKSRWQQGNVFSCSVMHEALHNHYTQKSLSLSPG
heavy: EVQLVESGGGLVKPGGSLRLSCAASGFTFSSYSMNWVRQAPGKGLEWVSSISSSSSYIYYADSVKGRFTISRDNAKNSLYLQMNSLRAEDTAVYYCARGAPIGAAAGWFDPWGQGTLVTVSSASTKGPSVFPLAPSSKSTSGGTAALGCLVKDYFPEPVTVSWNSGALTSGVHTFPAVLQSSGLYSLSSVVTVPSSSLGTQTYICNVNHKPSNTKVDKKVEPKSCDKTHTCPPCPAPELLGGPSVFLFPPKPKDTLMISRTPEVTCVVVDVSHEDPEVKFNWYVDGVEVHNAKTKPREEQYNSTYRVVSVLTVLHQDWLNGKEYKCKVSNKALPAPIEKTISKAKGQPREPQVCTLPPSRDELTENQVSLTCLVKGFYPSDIAVEWESNGQPENNYKTTPPVLDSDGSFFLYSWLTVDKSRWQQGNVFSCSVMHEALHNHYTQKSLSLSPG
light: DIQMTQSPSSVSASVGDRVTITCRASQGISSWLAWYQQKPGKAPKLLIYAASSLQSGVPSRFSGSGSGTDFTLTISSLQPEDFATYYCQQGVSFPRTFGGGTKVEIKRTVAAPSVFIFPPSDEQLKSGTASVVCLLNNFYPREAKVQWKVDNALQSGNSQESVTEQDSKDSTYSLSSTLTLSKADYEKHKVYACEVTHQGLSSPVTKSFNRGEC
notes: Chain S: anti-BAFF-R scFv-CH2-CH3; chain H: anti-NKG2D VH-CH1-CH2-CH3; chain L: anti-NKG2D VL-CL; also called AB1612-002
Kd [1]: 5900 nM and 5500 nM and 5800 nM and 6300 nM
Kd [2]: 900 nM and 1100 nM and 1000 nM
lysis of BJAB target cells by rested primary human NK cells, EC50 [3]: 0.06 nM
specific lysis of BAFF-R+ target cells by KHYG-1-CD16V effector cells, EC50 [3]: 0.05 nM
EC50 [4]: 0.18 nM
Max FOB [4]: 10 fold over background
Kd [5]: 271 nM
Kd [6]: 1000 nM
Kd [7]: 1400 nM
Kd [8]: 129 nM
Kd [9]: 5900 nM
Kd [10]: 1350 nM
Kd [11]: 6900 nM
Kd [12]: 3.2 nM
Kd [13]: 503 nM
Kd [14]: 129 nM
koff [15]: 0.11 s⁻¹
kon [15]: 190000 M⁻¹ s⁻¹
Kd [16]: 517 nM
Kd [17]: 1000 nM
EC50 [18]: 0.9 nM
Max FOB [18]: 85 fold over background
EC50 (read off the curve) [19]: ~0.8 nM
EC50 [20]: 3.09 nM
Kd [21]: 271 nM
Kd [22]: 1000 nM
koff [23]: 0.11 s⁻¹
kon [23]: 220000 M⁻¹ s⁻¹
